Results on 4 molecules are retold here after patent US20220251595A1, “ENGINEERED ATRLP23 PATTERN RECOGNITION RECEPTORS AND METHODS OF USE” (priority 2019, published 2022).

Sequences and labels used below:
B1: AtRLP23+TM-AtBAK1-3×FLAG: AtRLP23 apoplastic, eJM and TM domains, AtBAK1 cytoplasmic domain, 3×FLAG; SEQ ID NO: 37, 38 (protein)
chain: MSKALLHLHFLSLFLLCCVCHSSIFTLNFHFTGIVACRPHQIQAFTKFTNEFDTRGCNNSDTFNGVWCDNSTGAVAVLQLRKCLSGTLKSNSSLFGFHQLRYVDLQNNNLTSSSLPSGFGNLKRLEGLFLSSNGFLGQVPSSFSNLTMLAQLDLSYNKLTGSFPLVRGLRKLIVLDLSYNHFSGTLNPNSSLFELHQLRYLNLAFNNFSSSLPSKFGNLHRLENLILSSNGFSGQVPSTISNLTRLTKLYLDQNKLTSSFPLVQNLTNLYELDLSYNKFFGVIPSSLLTLPFLAHLALRENNLAGSVEVSNSSTSSRLEIMYLGSNHFEGQILEPISKLINLKHLDLSFLNTSYPIDLKLFSSLKSLRSLDLSGNSISSASLSSDSYIPLTLEMLTLRHCDINEFPNILKTLKELVYIDISNNRMKGKIPEWLWSLPLLQSVTLGNNYFTGFQGSAEILVNSSVLLLYLDSNNFEGALPDLPLSIKGFGVASNSFTSEIPLSICNRSSLAAIDLSYNNFTGPIPPCLRNLELVYLRNNNLEGSIPDALCDGASLRTLDVSHNRLTGKLPRSFVNCSSLKFLSVINNRIEDTFPFWLKALPNLQVLTLRSNRFYGPISPPHQGPLGFPELRIFEISDNKFTGSLPPNYFVNWKASSRTMNQDGGLYMVYEEKLFDEGGYGYTDALDLQYKGLHMEQAKALTSYAAIDFSGNRLEGQIPESIGLLKALIAVNISNNAFTGHIPLSMANLENLESLDMSRNQLSGTIPNGLGSISFLAYINVSHNQLTGEIPQGTQITGQSKSSFEGNAGLCGLPLKESCFGTGAPPMYHQKQEDKEEEEEEEEEEEEVLNGRAVAIGYGSGLLLGLAIAQVIASYRRKKPQDHFFDVPAEEDPEVHLGQLKRFSLRELQVASDNFSNKNILGRGGFGKVYKGRLADGTLVAVKRLKEERTQGGELQFQTEVEMISMAVHRNLLRLRGFCMTPTERLLVYPYMANGSVASCLRERPESQPPLDWPKRQRIALGSARGLAYLHDHCDPKIIHRDVKAANILLDEEFEAVVGDFGLAKLMDYKDTHVTTAVRGTIGHIAPEYLSTGKSSEKTDVFGYGVMLLELITGQRAFDLARLANDDDVMLLDWVKGLLKEKKLEALVDVDLQGNYKDEEVEQLIQVALLCTQSSPMERPKMSEVVRMLEGDGLAERWEEWQKEEMFRQDFNYPTHHPAVSGWIIGDSTSQIENEYPSGPRSDYKDHDGDYKDHDLDAAAADYKDDDDK
modifications: Fusion protein
B2: AtRLP23-OsXA21-3×FLAG: AtRLP23 apoplastic and eJM domains, OsXA21 TM and cytoplasmic domains, 3×FLAG; SEQ ID NO: 21, 22 (protein)
chain: MSKALLHLHFLSLFLLCCVCHSSIFTLNFHFTGIVACRPHQIQAFTKFTNEFDTRGCNNSDTFNGVWCDNSTGAVAVLQLRKCLSGTLKSNSSLFGFHQLRYVDLQNNNLTSSSLPSGFGNLKRLEGLFLSSNGFLGQVPSSFSNLTMLAQLDLSYNKLTGSFPLVRGLRKLIVLDLSYNHFSGTLNPNSSLFELHQLRYLNLAFNNFSSSLPSKFGNLHRLENLILSSNGFSGQVPSTISNLTRLTKLYLDQNKLTSSFPLVQNLTNLYELDLSYNKFFGVIPSSLLTLPFLAHLALRENNLAGSVEVSNSSTSSRLEIMYLGSNHFEGQILEPISKLINLKHLDLSFLNTSYPIDLKLFSSLKSLRSLDLSGNSISSASLSSDSYIPLTLEMLTLRHCDINEFPNILKTLKELVYIDISNNRMKGKIPEWLWSLPLLQSVTLGNNYFTGFQGSAEILVNSSVLLLYLDSNNFEGALPDLPLSIKGFGVASNSFTSEIPLSICNRSSLAAIDLSYNNFTGPIPPCLRNLELVYLRNNNLEGSIPDALCDGASLRTLDVSHNRLTGKLPRSFVNCSSLKFLSVINNRIEDTFPFWLKALPNLQVLTLRSNRFYGPISPPHQGPLGFPELRIFEISDNKFTGSLPPNYFVNWKASSRTMNQDGGLYMVYEEKLFDEGGYGYTDALDLQYKGLHMEQAKALTSYAAIDFSGNRLEGQIPESIGLLKALIAVNISNNAFTGHIPLSMANLENLESLDMSRNQLSGTIPNGLGSISFLAYINVSHNQLTGEIPQGTQITGQSKSSFEGNAGLCGLPLKESCFGTGAPPMYHQKQEDKEEEEEEEEEEEEVLNGRFPVLPISVSLAAALAILSSLYLLITWHKRTKKGAPSRTSMKGHPLVSYSQLVKATDGFAPTNLLGSGSFGSVYKGKLNIQDHVAVKVLKLENPKALKSFTAECEALRNMRHRNLVKIVTICSSIDNRGNDFKAIVYDFMPNGSLEDWIHPETNDQADQRHLNLHRRVTILLDVACALDYLHRHGPEPVVHCDIKSSNVLLDSDMVAHVGDFGLARILVDGTSLIQQSTSSMGFIGTIGYAAPEYGVGLIASTHGDIYSYGILVLEIVTGKRPTDSTFRPDLGLRQYVELGLHGRVTDVVDTKLILDSENWLNSTNNSPCRRITECIVWLLRLGLSCSQELPSSRTPTGDIIDELNAIKQNLSGLFPVCEGGSLEFSDYKDHDGDYKDHDLDAAAADYKDDDDK
modifications: Fusion protein
B3: AtRLP23-AtSOBIR1-3×FLAG: AtRLP23 apoplastic and eJM domains, AtSOBIR1 TM and cytoplasmic domains, 3×FLAG; SEQ ID NO: 29, 30 (protein)
chain: MSKALLHLHFLSLFLLCCVCHSSIFTLNFHFTGIVACRPHQIQAFTKFTNEFDTRGCNNSDTFNGVWCDNSTGAVAVLQLRKCLSGTLKSNSSLFGFHQLRYVDLQNNNLTSSSLPSGFGNLKRLEGLFLSSNGFLGQVPSSFSNLTMLAQLDLSYNKLTGSFPLVRGLRKLIVLDLSYNHFSGTLNPNSSLFELHQLRYLNLAFNNFSSSLPSKFGNLHRLENLILSSNGFSGQVPSTISNLTRLTKLYLDQNKLTSSFPLVQNLTNLYELDLSYNKFFGVIPSSLLTLPFLAHLALRENNLAGSVEVSNSSTSSRLEIMYLGSNHFEGQILEPISKLINLKHLDLSFLNTSYPIDLKLFSSLKSLRSLDLSGNSISSASLSSDSYIPLTLEMLTLRHCDINEFPNILKTLKELVYIDISNNRMKGKIPEWLWSLPLLQSVTLGNNYFTGFQGSAEILVNSSVLLLYLDSNNFEGALPDLPLSIKGFGVASNSFTSEIPLSICNRSSLAAIDLSYNNFTGPIPPCLRNLELVYLRNNNLEGSIPDALCDGASLRTLDVSHNRLTGKLPRSFVNCSSLKFLSVINNRIEDTFPFWLKALPNLQVLTLRSNRFYGPISPPHQGPLGFPELRIFEISDNKFTGSLPPNYFVNWKASSRTMNQDGGLYMVYEEKLFDEGGYGYTDALDLQYKGLHMEQAKALTSYAAIDFSGNRLEGQIPESIGLLKALIAVNISNNAFTGHIPLSMANLENLESLDMSRNQLSGTIPNGLGSISFLAYINVSHNQLTGEIPQGTQITGQSKSSFEGNAGLCGLPLKESCFGTGAPPMYHQKQEDKEEEEEEEEEEEEVLNGRVAAWILGFVVGAIGGTISGFVFSVLFKLIIQAIRGSEKPPGPSIFSPLIKKAEDLAFLENEEALASLEIIGRGGCGEVFKAELPGSNGKIIAVKKVIQPPKDADELTDEDSKFLNKKMRQIRSEINTVGHIRHRNLLPLLAHVSRPECHYLVYEYMEKGSLQDILTDVQAGNQELMWPARHKIALGIAAGLEYLHMDHNPRIIHRDLKPANVLLDDDMEARISDFGLAKAMPDAVTHITTSHVAGTVGYIAPEFYQTHKFTDKCDIYSFGVILGILVIGKLPSDEFFQHTDEMSLIKWMRNIITSENPSLAIDPKLMDQGFDEQMLLVLKIACYCTLDDPKQRPNSKDVRTMLSQIKHSDYKDHDGDYKDHDLDAAAADYKDDDDK
modifications: Fusion protein
B4: AtRLP23+TM-AtEFR-3×FLAG: AtRLP23 apoplastic, eJM and TM domains, AtEFR cytoplasmic domain, 3×FLAG; SEQ ID NO: 33, 34 (protein)
chain: MSKALLHLHFLSLFLLCCVCHSSIFTLNFHFTGIVACRPHQIQAFTKFTNEFDTRGCNNSDTFNGVWCDNSTGAVAVLQLRKCLSGTLKSNSSLFGFHQLRYVDLQNNNLTSSSLPSGFGNLKRLEGLFLSSNGFLGQVPSSFSNLTMLAQLDLSYNKLTGSFPLVRGLRKLIVLDLSYNHFSGTLNPNSSLFELHQLRYLNLAFNNFSSSLPSKFGNLHRLENLILSSNGFSGQVPSTISNLTRLTKLYLDQNKLTSSFPLVQNLTNLYELDLSYNKFFGVIPSSLLTLPFLAHLALRENNLAGSVEVSNSSTSSRLEIMYLGSNHFEGQILEPISKLINLKHLDLSFLNTSYPIDLKLFSSLKSLRSLDLSGNSISSASLSSDSYIPLTLEMLTLRHCDINEFPNILKTLKELVYIDISNNRMKGKIPEWLWSLPLLQSVTLGNNYFTGFQGSAEILVNSSVLLLYLDSNNFEGALPDLPLSIKGFGVASNSFTSEIPLSICNRSSLAAIDLSYNNFTGPIPPCLRNLELVYLRNNNLEGSIPDALCDGASLRTLDVSHNRLTGKLPRSFVNCSSLKFLSVINNRIEDTFPFWLKALPNLQVLTLRSNRFYGPISPPHQGPLGFPELRIFEISDNKFTGSLPPNYFVNWKASSRTMNQDGGLYMVYEEKLFDEGGYGYTDALDLQYKGLHMEQAKALTSYAAIDFSGNRLEGQIPESIGLLKALIAVNISNNAFTGHIPLSMANLENLESLDMSRNQLSGTIPNGLGSISFLAYINVSHNQLTGEIPQGTQITGQSKSSFEGNAGLCGLPLKESCFGTGAPPMYHQKQEDKEEEEEEEEEEEEVLNGRAVAIGYGSGLLLGLAIAQVIASYKRKKKNNASDGNPSDSTTLGMFHEKVSYEELHSATSRFSSTNLIGSGNFGNVFKGLLGPENKLVAVKVLNLLKHGATKSFMAECETFKGIRHRNLVKLITVCSSLDSEGNDFRALVYEFMPKGSLDMWLQLEDLERVNDHSRSLTPAEKLNIAIDVASALEYLHVHCHDPVAHCDIKPSNILLDDDLTAHVSDFGLAQLLYKYDRESFLNQFSSAGVRGTIGYAAPEYGMGGQPSIQGDVYSFGILLLEMFSGKKPTDESFAGDYNLHSYTKSILSGCTSSGGSNAIDEGLRLVLQVGIKCSEEYPRDRMRTDEAVRELISIRSKFFSSKTTITESPRDAPQSSPQEWMLNTDMHTMASDYKDHDGDYKDHDLDAAAADYKDDDDK
modifications: Fusion protein

This assay deals with corn protoplasts. The experiment in a line: Calcium burst in transiently transfected corn protoplasts, R-GECO1.2 fluorescence reporter. The format is cell-based, Zea mays. The note with it: Example 3, FIG. 4; 1 μM PpNLP20; 40 minutes; 384-well. The text has this: Following ligand (also known as elicitor) binding, PRRs are activated and induce a transient increase of cytosolic Ca^2+ concentration as part of a PTI response. […] In a high-throughput method, the kinetics of PRR-dependent transient variation of cytosolic Ca^2+ concentration can be measured with a fluorimeter or luminometer and in microplate formats of 96 or 384 wells.
Fluorescence was monitored using a fluorimeter equipped with a 100 Hz xenon flash lamp with excitation at 556 nm and emission measured at 585 nm for 100 ms, every 22.6 seconds for 42 minutes.
All of the AtRLP23 constructs have an operably linked 2×35S+Ω promoter construct (SEQ ID NO: 72) and an operably linked rbcS terminator (SEQ ID NO: 73)
Fluorescence was monitored using a fluorimeter equipped with a 100 Hz xenon flash lamp with excitation at 556 nm and emission measured at 585 nm for 30 ms, every 20.2 seconds for 40 minutes. For each fluorescence measurement, the transient change in R-GECO1.2 fluorescence (ΔF) are calculated from background corrected intensity values as (F-Fo), where F represents the average fluorescence intensity of the a batch of protoplasts treated with elicitor, and Fo represents the average fluorescence intensity of the same batch of protoplasts treated with a control solution that lacks the elicitor but is otherwise identical or essentially identical in composition to the solution comprising the elicitor.
Consider B1, for which the “responsiveness to PpNLP20 treatment compared to AtRLP23-3×FLAG (total transient increase of fluorescence)” value is “reduced responsiveness”.

Regarding B2, the “responsiveness to PpNLP20 treatment compared to AtRLP23-3×FLAG (total transient increase of fluorescence)” value is recorded as “increased responsiveness”.

Consider B3, for which the “responsiveness to PpNLP20 treatment compared to AtRLP23-3×FLAG (total transient increase of fluorescence)” value is listed as “reduced responsiveness”.

Consider B4, for which the “responsiveness to PpNLP20 treatment compared to AtRLP23-3×FLAG (total transient increase of fluorescence)” value is on record as “comparable responsiveness”.
